Experimental data published in publication PMC4575918, “Regulation of p53 oligomerization by Ras superfamily protein RBEL1A” (Genes & Cancer, 2015).

Columns and labels:
[1] = target: the molecule itself; test: cross-linking; purified p53 (315-360) incubated with purified RBEL1A or BSA (1:1 or 2:1 molar ratio) 1 hour at 4 C, then glutaraldehyde 5 minutes at 4 C; SDS-PAGE, anti-p53 (FL-393) blot
[2] = target: T1, purified recombinant full-length RBEL1A (UniProt Q3YEC7-1 1-729, purification (1): glycosylated (larger molecular mass); purification (2): unglycosylated or less glycosylated); test: as above; conditions: both partners purified
T1 construct: RBEL1A, Ras superfamily GTPase, full length; also called recombinant RBEL1A; RBEL1A (1); source: purified recombinant protein
T1 sequence (looked up): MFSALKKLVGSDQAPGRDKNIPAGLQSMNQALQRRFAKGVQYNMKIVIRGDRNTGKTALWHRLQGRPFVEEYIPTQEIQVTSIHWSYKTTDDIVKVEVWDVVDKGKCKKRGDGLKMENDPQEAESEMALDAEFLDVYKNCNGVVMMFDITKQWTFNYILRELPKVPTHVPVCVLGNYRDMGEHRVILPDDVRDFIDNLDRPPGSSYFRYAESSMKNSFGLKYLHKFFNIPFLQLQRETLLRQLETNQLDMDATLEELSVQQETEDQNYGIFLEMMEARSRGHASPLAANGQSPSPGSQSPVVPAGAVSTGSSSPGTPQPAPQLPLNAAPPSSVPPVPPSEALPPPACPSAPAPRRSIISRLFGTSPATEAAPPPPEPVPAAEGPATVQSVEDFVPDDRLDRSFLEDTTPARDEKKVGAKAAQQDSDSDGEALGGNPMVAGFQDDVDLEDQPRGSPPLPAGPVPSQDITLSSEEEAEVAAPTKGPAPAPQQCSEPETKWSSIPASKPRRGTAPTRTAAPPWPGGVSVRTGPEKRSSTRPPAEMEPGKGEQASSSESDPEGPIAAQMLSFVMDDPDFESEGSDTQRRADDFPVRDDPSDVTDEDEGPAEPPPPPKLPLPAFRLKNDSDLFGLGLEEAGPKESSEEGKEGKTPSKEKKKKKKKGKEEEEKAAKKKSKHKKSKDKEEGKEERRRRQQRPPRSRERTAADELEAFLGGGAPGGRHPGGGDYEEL

B1: purified recombinant p53 tetramerization domain (residues 315-360) (domain or fragment, UniProt P04637 315-360, looked up)
chain: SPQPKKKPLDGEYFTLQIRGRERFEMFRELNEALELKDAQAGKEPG
notes: p53 tumor suppressor, residues 315-360 (tetramerization domain); also called p53-Oligo-D; recombinant p53 (315-360); source: purified recombinant polypeptide
For B1, the “stoichiometry N” value [1] was 4 and the binding result [2] was “binds”.
